Data from the DeepSol protein solubility set.

experiment: soluble on expression in E. coli; label from the status in PepcDB or PDB records

Sequence	soluble on expression in E. coli
MVGSLNCIVAVSQNMGIGKNGDLPWPPLRNEFRYFSRMTTTSSVEGKQNLVIMGKKTWFSIPEKFRPLKGRINLVLSRELKEPPQGAHFLSRSLDDALKLTEQPELANKVDMVWIVGGSSVYKEAMNHPGHLKLFVTRIMQDFESDTFFPEIDLEKYKLLPEYPGVLSDVQEEKGIKYKFEVYEKND	soluble
MTERKIFNRLKSVLAEKGKTNLWLTETLDKNKTTVSKWCTNDVQPSLETLFDIAEALNVDVRELIVSTKR	soluble
KPGARIGVGMEYQFNDMISLQPSLFFSQKGAKYSSGFDGNIIDADADVKINQLYLELPVNVQFRFNIADNTNLVIATGPYLACGVGGKAKFDGDASVGGIHINGDDKIDTFGDDGLDYNRFDAGWNIGLGVEFGKILVGLDTQLGFCKVMDGDAPHNANIGITLGYKF	not soluble
MKNQLIDRLTRYTTIDTQSDPKSTTTPSTEKQWDLLHLLEKELQQLGLPTDLDENGYLFATLESNIDVDVPTVGFLAHVDTSPDFNASNVKPQIIENYDGKPYKLGNTKRVLDPKVFPELNSLVGHTLMVTDGTSLLGADDKAGIVEIMEAICYLQEHPEIKHGTIRIGFTPDEEIGRGPHKFDVDRFNADFAYTMDGSQYGELQYESFNAAEAVITCHGVNVHPGSAKNAMVNAIRLGEQFDSLLPDSEVPERTEGYEGFYHLMNFEGTVEKATLQYIIRDHDKKQFELRKKRILEIRDDINAHFENYPVKVDISDQYFNMAEKILPLPHIIDIPKRVFAKLDIPANTEPIRGGTDGSQLSFMGLPTPNIFTGCGNFHGPYEYASIDVMEKAVQVIIGIVEDIAENH	not soluble
MYRNLLNWLTILLVFPSCSGTSPTISVVCEENNVGNAIIKWETAPILKGQVKVYASTSPDFIPEENPVVTINIAKGKKTIVTNDPSQRYYYLMVFNNRYRVRVAARNVNIPGIQNFRDLGGYKSAETGKDTRWGMLYRSAQIDSIPFCSRRELKNMGIRTIIDLRSEEERHNYPQLHDEDFNVLHLPIATGNMEHILQDIRDKKIETDTIYRLVERMNRQLVTNYRKEYKELFTLLLDRNNYPVVIHCTSGKGRTGIVSALVLAALGVNEEAIMKDYRLSNDYFNIPKASRYAYKLPINSQEAITTIYSAKEDFLNAAKEQIDAEYGSVQAYLKKGIGLSAEEIERLRSILLIDNGLEHHHHHH	not soluble
MSLATTTSTDNTGLLDVLAPAYKKDTGVDLKWVAVGTGNALKLGENCDVDVVFVHAPKVELEYVEKGFGIDRTPVMYNDFVIIGNPSFKQKFTGMSVAEAFKLIEKEQVKFVSRGDKSGTHSKEREVWKEALGKIPEKESWYIEAGQGMLATINIAEEQKGLTLTDRGTFIKYESNHKGKPPMVIVLEGDNTLKNFYSIMAVNPKRCEKADYKGAKQFIDWIVSEKMQAEIANFKLLDKQLFTPDAKTREGHHHHHH	soluble
MGSDKIHHHHHHMGIDIKHEESSLVGLLTYIGRLKDEQFDYVIDLHNVIRSKIIRFYLRFFGVKGFSLKKPRLQLRQLTAKPPKKPTRLPSVIERYAQVFHKAGLEIHPPYPILLNDSGHISTELPIVEIGSGHHLIGIAPFAGHEAKTYPPEKMHEVVRTLAERDDVQIFLFGGKGKEKNILEQWADESPRIVSVAGLLSLPEELSLIHALRCMVSMDSANMHFASLVGTRVISIWCATHPAAGFLGYGQRIEDCIGADLDCRPCSVFGNKPCFRKDYACRTQIEPQLIINKIVSTLTDLNSDETEN	not soluble
MASIPTVNVIGAGLAGSEAAWHIANMGVNVRLYEMRPNKMTPAHHTAQFAELVCTNSLRANQLANAAGLLKAEMRQMDSIVMQAAEHHAVPAGGALAVDRDTFSAEITAAITALPNVEIINEEITSLPDGITVVATGPLTAASLAKSIQAFNDEDDLHFFDAAAPILTKDSIDMDKVYLKSRYDRGEAAYLNCPMTEAEFDVFYDALIHAEMAEAHDFENSDVFEGCMPIEVMAQRGRQTMLFGPLKPVGLEDPKTGKQPFAVVQLRQDDAAGDLYNIVGFQTHLKWGEQKRVFSLIPGLENVEFVRYGVMHRNTFMKSPKLLTPTYQTQQRPDLFFAGQMTGVEGYIESAASGIVAGTNAARLALGLEPVVFPTDTMMGAMAHYITHTSASNFQPMNANFGIMPKLKQRIRDKRERNTAISERALADLTTFKDETLTVNNLEHHHHHH	soluble
